Measurements reported in article PMC5693252.
Like-named read-outs stand apart in the source and are kept apart here.

Assays:
Test in all cases: native MS
[1] = biological target: protein kinase A regulatory type II (RII) subunit (UniProt P12367)
[2] = biological target: protein kinase A regulatory type II (RII) subunit (UniProt P12367); remark: listed apart in the source
AKAP79(297-427) = AKAP79(297-427) (UniProt P24588)
UniProt P24588, sequence (P24588 297-427): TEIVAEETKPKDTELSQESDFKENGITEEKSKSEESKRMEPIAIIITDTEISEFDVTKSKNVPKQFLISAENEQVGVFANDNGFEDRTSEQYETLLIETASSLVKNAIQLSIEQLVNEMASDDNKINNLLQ

protein kinase A regulatory type II (RII) subunit (from UniProt P12367 1-401) (natural protein)
2: stoichiometry N (RII chains in the oligomer) [1] | stoichiometry N (RII chains in the oligomer) [2] | stoichiometry N (RII chains per AKAP79(297-427)) (AKAP79(297-427))
